T1: L10(L12)4 complex (ribosomal proteins L10 and L12) (Bacillus subtilis (source strain of the …, UniProt P42923;P02394 1-166;1-123))
T1 sequence 1: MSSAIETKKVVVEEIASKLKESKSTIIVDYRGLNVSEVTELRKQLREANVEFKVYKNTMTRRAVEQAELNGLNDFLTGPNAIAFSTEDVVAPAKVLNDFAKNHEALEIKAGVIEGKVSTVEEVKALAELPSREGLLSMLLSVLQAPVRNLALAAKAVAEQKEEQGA
T1 sequence 2: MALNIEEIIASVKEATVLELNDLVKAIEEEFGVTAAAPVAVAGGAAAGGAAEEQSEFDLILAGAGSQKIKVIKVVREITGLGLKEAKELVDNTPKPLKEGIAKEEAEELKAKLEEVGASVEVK

B1: rplJL leader RNA +13 to +118 (structured_RNA)
RNA: AAUAUCAUUUAUACCGUAGACAGUAGGGGCCUAACCGCUUAAUUAUCCUACCGAGGUGUAUAUUAUCACAGCUAUUACGUUACGUAUGCUUGUAUAUACAGCCUCC
B2: rplJL leader RNA +13 to +76 (3' boundary, bound) (structured_RNA)
RNA: AAUAUCAUUUAUACCGUAGACAGUAGGGGCCUAACCGCUUAAUUAUCCUACCGAGGUGUAUAUU

What was measured:
[1] = biological target: T1, L10(L12)4 complex (ribosomal proteins …); test: filter binding; 3 mM Mg2+; yeast RNA competitor 0.2 mg/ml; apparent Kd; Filter binding: 30 mM Tris-HCl pH 7.6, 175 mM KCl, 3 mM MgCl2, 10% glycerol, 0.2 mg/ml yeast RNA, 50 ug/ml BSA, 0.01 nM RNA, 37 C 30 min; in-line probing: 50 mM Tris-HCl pH 8.3, 20 mM MgCl2, 100 mM KCl, 15% glycerol, 25 C 40 h; boundary: 37 C 30 min; settings: protein: recombinant; tags: N-terminal His6 on L10; L12 native; copies: 1;4; label: 5' 32P; anti-antiterminator (AAT) structure with kink-turn
[2] = biological target: T1, L10(L12)4 complex (ribosomal proteins …); test: 3' boundary analysis (native gel EMSA); 1 or 3 uM L10(L12)4; Filter binding: 30 mM Tris-HCl pH 7.6, 175 mM KCl, 3 mM MgCl2, 10% glycerol, 0.2 mg/ml yeast RNA, 50 ug/ml BSA, 0.01 nM RNA, 37 C 30 min; in-line probing: 50 mM Tris-HCl pH 8.3, 20 mM MgCl2, 100 mM KCl, 15% glycerol, 25 C 40 h; boundary: 37 C 30 min; settings: protein: recombinant, tags: N-terminal His6 on L10, copies: 1;4, label: 5' 32P, AAT structure complete (3' end of AAT at +72)

| Binder | Kd [1] | binding result [2] |
| --- | --- | --- |
| B1 | 33 ± 10 nM | – |
| B2 | – | binds |

Reference: PMC4538822, “Ribosomal protein L10(L12)4 autoregulates expression of the Bacillus subtilis rplJL operon by a transcription attenuation mechanism”
